Data published in US6589738B1, “Genes essential for microbial proliferation and antisense thereto” (priority 1999, dated 2003).
Converted amounts (≈) assume the structure as drawn.

B1: EcXA072: antisense clone insert, E. coli gene recJ (nucleic acid, listed as Escherichia coli)
DNA: GATTTTTACCGGATTAATTTTAAACATGGTCTGATTTCTTTTATTGAGCTAGTCAAAATGCGGTGATAAGAGCGGGATTGTCCCAATCCACGCTCTTTTTTATAGAGAAGATGACGCTAAATTGGCCAGATATTGTCGATGATAATTTG
B2: EcXA104: antisense clone insert, E. coli gene hsdS (nucleic acid, listed as Escherichia coli)
DNA: GACGCGGCGAACGATTTCGGCTTGTTCTTTTACTGGAGGTAATAAAACAACTTGGGATTTGATATCTTTTCCTGAAATACCTTTTTGACCAGAAGTTGTTTTCACGCAGTTCATCATTGCATTTCGTGCTGAGGGGGATGAAAAAAATATTTCGATATATTCTGGTAAAGCATCTTT
B3: EcXA082: antisense clone insert, E. coli genes hybC; hybB (nucleic acid, listed as Escherichia coli)
DNA: TGCTTTGCTCGCCTCATGACGATTATGATCGTTTTGTTTTAAAGGAGGAAGTATCGGCAGTAGACGAATGAGTACGATGTAAGCGCAAATCTCAATAGCCACAAAACCAATAGAAATCAACAGTTCTTCCCAGGTCGGGAAGTA
B4: EcXA059: antisense clone insert encoding a portion of the ypjA gene of Escherichia coli (nucleic acid, listed as Escherichia coli)
DNA: NACCANGANTGGGACCCAAATGAAAATTGAACTGAAGATTACAATCAATTTAACANCAAGTTACACAACCAATTCAGACTCCGCCAGCCCACCAATCATGATTGGACGGTGTAAGGACAACACCAACAAAAACAGGAAGTTAGAAGTCTNAGCAAAACACCGACCAGACGGTGAGGAGACATAAAAGGATACGCAAAGGAGCCGCGGCTCCTGGTAACATGAAAGCCCACAGATGTGGGCTTTTTCGTTGATGGTCAGAACGACCAGTTCACACCAGCTACCGCGTTCCACGGGGATTCCACACCGGCACTATGGCTATACCCCACCCCAAGATGCCCGCTTAACGTACTGCTGAATGAGGCTTTAATACCTGCCTGGTATATTCCACGTCTGCCCGACAAATAATTGACGAAATTACCGNCACTATTCACTTTCACCCGGTTATCATCGACAAATTCTTTGCGCACAAGCCGNCTTCAGCCACGGNTCAACTTCCATACCGNTCCCCAGACGCATGTTGTAACTCAACGTTGCGCCCAGTTCACGATATATACTGCGGGTATCGACTGATTTCGATTTCATGCCATTGGATAAATGATATTCGGGGTTATCAGCGGTGAAACCCGTTNACGATGCATACNGGGTCAGGGTTCAATTACCATCGGTAAATCGCATTCCCGGTTTCAATGTGACCGCCAANCCCGTTGCTGTNGGTAACTGGCATTGGCGGGTTCANCGGTGGTAATTTTAACCTGGTACGNTACTTTTAAAACGGGTTAAGCTTTACCGAANACCGTNCANNATTGGAAACCCNCTTTTAATGGTTNCCCAACTNGGNN
modifications: misc_feature (1)...(839): n = A,T,C or G
notes: antisense clone insert encoding a portion of the ypjA gene of Escherichia coli
B5: EcXA083: antisense clone insert, E. coli gene hrpB (nucleic acid, listed as Escherichia coli)
DNA: CGGCTTAGCGCGTCGTTGGCATCGAGCATCGCTCCCATGCCGTTTGCCAGTTGATAGCGTCCATCTTGCC
B6: EcXA062: antisense clone insert, E. coli gene rep (nucleic acid, listed as Escherichia coli)
DNA: CGCGTGGAGAGTCATCAGTTGCACCTGATCCAGCTCTTCTTCACTCTCACCACGCTCNATCATGTCGCGCAAAGTAAAGCGCGTCACCACCTGGGTGAGCGTCATCGGCTCATCCAGTTCACTGCCTTCCAGCATCTCCGTCATCCAGCTAAACAGTTGGTTGACGTTCTTCATGCGCATTTCGGCGGCTTTCGGGCTGGGCGATGTTTCGTACAGCCAGGATTCATAATCCATGCCATGGATCAGATCACGCACCGCGGCAATCGGCTCCCGCTCCGCCAGACGCTGGATTTCTGCCAACCAGTGAGTGAAGCGGGTCAATGCTTCA
modifications: misc_feature (1)...(328): n = A,T,C or G
notes: antisense clone insert, E. coli gene rep

Assays:
[1] = tested on: Bacterial cells containing IPTG-inducible antisense nucleic acid against rplL and rplJ (50S ribosomal subunit proteins); assay: microbe, parasite or virus in culture; format: cell-based, E. coli; conditions: Escherichia coli, read-out: IC50 (+IPTG)
Experimental: Antibiotics of various chemical classes and modes of action were purchased from Sigma Chemicals (St. Louis, Mo.). Stock solutions were prepared by dissolving each antibiotic in an appropriate aqueous solution based on information provided by the manufacturer. The final working solution of each antibiotic contained no more than 0.2% (w/v) of any organic solvent. To determine their potency against a bacterial strain engineered for expression of an antisense against a proliferation-required gene encoding 50S ribosomal protein, each antibiotic was serially diluted two or three fold in growth medium supplemented with the appropriate antibiotic for maintenance of the anti-sense construct. […]
Cells for the assay were prepared as follows. […] The plate was then loaded into a plate reader, incubated at constant temperature, and cell growth was monitored in each well by the measurement of light scattering at 595 nm. Growth was monitored every 5 minutes until the cell culture attained a stationary growth phase. For each concentration of antibiotic, a percentage inhibition of growth was calculated at the time point corresponding to mid-exponential growth for the associated control wells (no antibiotic, plus or minus IPTG). For each antibiotic and condition (plus or minus IPTG), a plot of percent inhibition versus log of antibiotic concentration was generated and the IC50 determined.

Escherichia coli = assay: Growth inhibition after IPTG induction of antisense RNA expression (Example 1; score of Example 12); format: cell-based; conditions: for effect of antisense expression on E. coli growth: 1 mM IPTG
Experimental: (§1) To study the effects of transcriptional induction in liquid medium, growth curves were carried out by back diluting cultures 1:200 into fresh media with or without 1 mM IPTG and measuring the OD450 every 30 minutes (min). To study the effects of transcriptional induction on solid medium, 10^2, 10^3, 10^4, 10^5, 10^6, 10^7 and 10^8 fold dilutions of overnight cultures were prepared. Aliquots of from 0.5 to 3 μl of these dilutions were spotted on selective agar plates with or without 1 mM IPTG. After overnight incubation, the plates were compared to assess the sensitivity of the clones to IPTG.
Of the numerous clones tested, some clones were identified as containing a sequence that inhibited E. coli growth after IPTG induction. Accordingly, the gene to which the inserted nucleic acid sequence corresponds, or a gene within the operon containing the inserted nucleic acid, may be required for proliferation in E. coli.
(§2) Molecule No. EcXA059, encoding a portion of the ypjA gene of Escherichia coli, was either transformed directly into Enterobacter cloacae, Salmonella typhimurium and/or Klebsiella pneumoniae or subcloned into an expression vector functional in these species and the subclones transformed into these organisms. Suitable expression vectors are well known in the art. These expression vectors were introduced into Enterobacter cloacae, Salmonella typhimurium and/or Klebsiella pneumoniae cells that were then assayed for growth inhibition according to the method of Example 1. After growth in liquid culture, cells were plated at various serial dilutions and a score determined by calculating the log difference in growth for INDUCED vs. UNINDUCED antisense RNA expression as determined by the maximum 10 fold dilution at which a colony was observed. If there was no effect of antisense RNA expression in one organism, the clone is given a score of zero “0” in that organism. In contrast, a score of “8” means that 10^8 times more cells were required to observe a colony formed on the induced state than in the non-induced state under the conditions used and in that organism.

Salmonella typhimurium = assay: Growth inhibition by E. coli antisense nucleic acids in another microorganism, INDUCED vs. UNINDUCED (Example 12, Table V); format: cell-based; conditions: for Sensitivity of S. typhimurium to antisense nucleic acid (growth inhibition, INDUCED vs. UNINDUCED): antisense RNA expression induced with IPTG, serial dilution plating
Experimental: as §1, §2
(§3) Expression vectors which inhibited growth of E. coli upon induction of antisense RNA expression with IPTG were transformed directly into Enterobacter cloacae, Klebsiella pneumonia or Salmonella typhimurium. The transformed cells were then assayed for growth inhibition according to the method of Example 1. After growth in liquid culture, cells were plated at various serial dilutions and a score determined by calculating the log difference in growth for INDUCED vs. UNINDUCED antisense RNA expression as determined by the maximum 10 fold dilution at which a colony was observed. If there was no effect of antisense RNA expression in a microorganism, the clone is minus in Table V below. In contrast, a positive in Table V below means that at least 10 fold more cells were required to observe a colony on the induced plate than on the non-induced plate under the conditions used and in that microorganism.

Klebsiella pneumoniae = assay: as above; format: cell-based; conditions: for Sensitivity of K. pneumoniae to antisense nucleic acid (growth inhibition, INDUCED vs. UNINDUCED): antisense RNA expression induced with IPTG, serial dilution plating
Experimental: as §1, §2, §3

Enterobacter cloacae = assay: as above; format: cell-based; conditions: for Sensitivity of E. cloacae to antisense nucleic acid (growth inhibition, INDUCED vs. UNINDUCED): antisense RNA expression induced with IPTG, serial dilution plating
Experimental: as §1, §2, §3

Molecule | effect of antisense expression on E. coli growth (Escherichia coli) | Sensitivity of S. typhimurium to antisense nucleic acid (growth inhibition, INDUCED vs. UNINDUCED) (Salmonella typhimurium) | Sensitivity of K. pneumoniae to antisense nucleic acid (growth inhibition, INDUCED vs. UNINDUCED) (Klebsiella pneumoniae) | Sensitivity of E. cloacae to antisense nucleic acid (growth inhibition, INDUCED vs. UNINDUCED) (Enterobacter cloacae) | also measured
NC[C@H]1O[C@H](O[C@H]2[C@H](O)[C@@H](O[C@H]3O[C@H](CO)[C@@H](O)[C@H](N)[C@H]3O)[C@H](N)C[C@@H]2N)[C@H](N)C[C@@H]1O [Tobramycin] | – | – | – | – | IC50 [1]: 0.0705 µg/mL (≈ 0.151 µM)
B1 | reduction in cell growth | + (a positive in Table V below means that at least 10 fold more cells were required to observe a colony on the induced plate than on the non-induced plate) | + (a positive in Table V below means that at least 10 fold more cells were required to observe a colony on the induced plate than on the non-induced plate) | – | –
B2 | reduction in cell growth | + (a positive in Table V below means that at least 10 fold more cells were required to observe a colony on the induced plate than on the non-induced plate) | + (a positive in Table V below means that at least 10 fold more cells were required to observe a colony on the induced plate than on the non-induced plate) | + (a positive in Table V below means that at least 10 fold more cells were required to observe a colony on the induced plate than on the non-induced plate) | –
B3 | reduction in cell growth | – | – | + (a positive in Table V below means that at least 10 fold more cells were required to observe a colony on the induced plate than on the non-induced plate) | –
B4 | – | + (a positive in Table V below means that at least 10 fold more cells were required to observe a colony on the induced plate than on the non-induced plate) | + (a positive in Table V below means that at least 10 fold more cells were required to observe a colony on the induced plate than on the non-induced plate) | + (a positive in Table V below means that at least 10 fold more cells were required to observe a colony on the induced plate than on the non-induced plate) | score (log difference in growth for INDUCED vs. UNINDUCED antisense RNA expression) (Escherichia coli; Escherichia coli, maximum 10 fold dilution at which a colony was observed): 8; score (log difference in growth for INDUCED vs. UNINDUCED antisense RNA expression) (Enterobacter cloacae; Enterobacter cloacae, IPTG induction): 8; score (log difference in growth for INDUCED vs. UNINDUCED antisense RNA expression) (Salmonella typhimurium; Salmonella typhimurium, IPTG induction): 8; score (log difference in growth for INDUCED vs. UNINDUCED antisense RNA expression) (Klebsiella pneumoniae; Klebsiella pneumoniae, IPTG induction): > 7
B5 | reduction in cell growth | – | – | – | –
B6 | reduction in cell growth | – | – | – | –
